Measured values taken from paper PMC11570472, “Activity and phosphatidylcholine transfer protein interactions of skeletal muscle thioesterase Them2 enable hepatic steatosis and insulin resistance” (The Journal of Biological Chemistry, 2024).
Numbering of substitutions follows the chain as printed. Names and notes keep the numbering of the source.

B1: His-tagged WT mouse Thioesterase superfamily member 2 (Them2), purified recombinant (enzyme, UniProt Q9CQR4 1-140, looked up)
chain: MSSMTQNLREVMKVMFKVPGFDRVLEKVTLVSAAPEKLICEMKVEEQHTNKLGTLHGGLTATLVDSISTMALMCTERGAPGVSVDMNITYMSPAKIGEEIVITAHILKQGKTLAFASVDLTNKTTGKLIAQGRHTKHLGN
notes: also called WT Them2; acyl-CoA thioesterase 13
B2: His-tagged N50A/D65A mouse Them2, purified recombinant (enzyme, UniProt Q9CQR4 1-140, looked up)
chain: B1 chain with N50A, D65A
notes: also called N50A/D65A Them2

Target: the molecule itself
Test: SEC; purified recombinant protein (100 uM) on an analytical Superdex 75 10/300 column, 0.5 ml/min, UV absorbance at 280 nm

Protein | stoichiometry N
B1 | 4
B2 | 4
